{"source": "the DeepSol protein solubility set", "assay": "soluble on expression in E. coli; label from the status in PepcDB or PDB records", "data": [{"sequence": "MSLRPARKTVGVALSGGGANGIAQIGVLKALDEERIPVDYIAGTSMGAIIGGLYSCGYSPADLEKIAETLPWQSVLSIREENPRARIFLEQQRIRDRSTIAIRFDKLKLMIPKSLSSAQALTGTLDLLILNGVYHSWQDFNSLPVQFRAVSTDLISGKRITLTSGSLSEAMRASSTIPVLFEPIERDGYRLVDGGLVANLPVDELDVVNASYKIAVDTHGSMYSKSGDLDLPWKAADQAITILTGLQYPAQLEKADEGHHHHHH", "values": [{"measurement": "soluble on expression in E. coli", "result": "soluble"}]}, {"sequence": "MGSDKIHHHHHHMNSNFLSSYPRDVIAVLVKDDQPLEQPKCNVRLAEFTYATVGVNGEPTTASAAMLVPGGPQCQGPYPLLGWGDGTQTLRRDEMAKDIRDAKGNDPLVTHLASQGYVVVSTDYLGLGKSSYPFHPYLHSATEANAMIDALRAARTVLDRLNTPLSGKVMLSGYSVGGHAAMASQREIEAHLSKEFNLVASAPIAGPYALEQTFVDSWSGRNTVGESTFGLVLASYAIVGMQHAYQNIYTAPSQVFRAPWAATVESQFPGTKSLLDLFVDLPEIGKVKQYFQADFYRDFASNPNNPFRKDLARNDLLDWRPRTKTLLCGSSNDATVPLKNATTAIAAFEQRGSTQVSLVDLGTGKASDNSAGEHLAIKDSCIVAVRQQLLDKQR", "values": [{"measurement": "soluble on expression in E. coli", "result": "not soluble"}]}, {"sequence": "MKRRRLLQSLLAGLALQPFLAASANVRIRQARAWNSSESWRLVLELDGPPRYRTFSLQAPERLILDLPDAQLLATLSELPLDGPVRAIRSGQLGGGGTRIVLDLRQAVRPRSFALEPQAGKGHRLVLDLYPQALAAPPEPMLALARPLPSTGRDILVVVDAGHGGKDPGAVGSKGEREKDVALAIARLLARRIDREKGFKARLVRNGDVFVPLRKRPEVARRYNADMFVSVHADAAPRLTASGASVYALSEHGASSTMARWMAERENGADLIGNSGNLPLQGRDKVLAGVILDMALSSTIASSLDLGHSVLGQLSDVTALHQKRVEQAGFAVLKSPDIPSILVETGFISNRGDCRRLMDERHRQRLAEAIFAGVQGYFRQRPPAGSYLAALSAQPPG", "values": [{"measurement": "soluble on expression in E. coli", "result": "not soluble"}]}, {"sequence": "ATLHSFVLVDNGGTGNVTVVPVSNANGVAEWLSNNSRSQAYRVTASYRASGADKRKYTIKLEVPKIVTQVVNGVELPVSAWKAYASIDLTIPIFAATDDVTVISKSLTGLFKVGNPIAEAISSQSGFYA", "values": [{"measurement": "soluble on expression in E. coli", "result": "soluble"}]}, {"sequence": "MSLYEWLNALPKAELHLHLEGTLEPELLFALAERNRIALPWNDVETLRKAYAFNNLQEFLDLYYAGADVLRTEQDFYDLTWAYLQKCKAQNVVHVEPFFDPQTHTDRGIPFEVVLAGIRAALRDGEKLLGIRHGLILSFLRHLSEEQAQKTLDQALPFRDAFIAVGLDSSEVGHPPSKFQRVFDRARSEGFLTVAHAGEEGPPEYIWEALDLLKVERIDHGVRAFEDERLMRRLIDEQIPLTVCPLSNTKLCVFDDMSQHTILDMLERGVKVTVNSDDPAYFGGYVTENFHALQQSLGMTEEQARRLAQNSLDARLVKEGHHHHHH", "values": [{"measurement": "soluble on expression in E. coli", "result": "soluble"}]}, {"sequence": "MIKVRVPDFSDKKFSDRWRYCVGTGRLGLALQKEYIETLKYVKENIDFKYIRGHGLLCDDVGIYREDVVGDEVKPFYNFTYIDRIFDSFLEIGIRPFVEIGFMPKKLASGTQTVFYWEGNVTPPKDYEKWSDLVKAVLHHFISRYGIEEVLKWPFEIWNEPNLKEFWKDADEKEYFKLYKVTAKAIKEVNENLKVGGPAICGGADYWIEDFLNFCYEENVPVDFVSRHAYTSKQGEYTPHLIYQEIMPSEYMLNEFKTVREIIKNSHFPNLPFHITEYNTSYSPQNPVHDTPFNAAYIARILSEGGDYVDSFSYWTFSDVFEERDVPRSQFHGGFGLVALNMIPKPTFYTFKFFNAMGEEMLYRDEHMLVTRRDDGSVALIAWNEVMDKTENPDEDYEVEIPVRFRDVFIKRQLIDEEHGNPWGTWIHMGRPRYPSKEQVNTLREVAKPEIMTSQPVANDGYLNLKFKLGKNAVVLYELTERIDESSTYIGLDDSKINGY", "values": [{"measurement": "soluble on expression in E. coli", "result": "soluble"}]}, {"sequence": "MTVDLTNVFQQIDGDYDNLKELLREAVAIQSVSGDPSKRDETIRMVHWMKEKLETIGTICELADLGTQELEGKTVKLPPVLLGTLGSDKNKKTLLVYGHLDVQPAAKSDGWDTEPFELVEKDGKLFGRGSSDDKGPVLCWFHAIRAAQKNGIDLPVNIKFCLEGMEESGSVGLPELLEREKDRFLAGVDFVCISDSYWLGTKKPCLTYGLRGICSFFVEVTGIKQDLHSGVFGGVIHEPLQDLMWVMSQLTTVDNRIKIPGLYEQVAPLSAAEEKTYDDIEFDVAEFRDSVGASKLPTEDKKTLLLRRWREPSLAFHGIEGAFYGPGEKTVIPSKVIGKFSIRIVPDMDPEQVNRLTVEYLNKVWAERGSPNVFKPRPGHSAKPWVVDVNDSNFLAGARAMKRVHGVEPDRIREGCSIPITLTFQELTGKSVLLLPIGAADDMAHSQNEKNNIWNYVEGVKTLLAYIMELGSA", "values": [{"measurement": "soluble on expression in E. coli", "result": "not soluble"}]}, {"sequence": "MMKTLSSGNCTLSVPAKNSYRMVVLGASRVGKSSIVSRFLNGRFEDQYTPTIEDFHRKVYNIRGDMYQLDILDTSGNHPFPAMRRLSILTGDVFILVFSLDNRESFDEVKRLQKQILEVKSCLKNKTKEAAELPMVICGNKNDHGELCRQVPTTEAELLVSGDENCAYFEVSAKKNTNVDEMFYVLFSMAKLPHEMSPALHRKISVQYGDAFHPRPFCMRRVKEMDAYGMVSPFARRPSVNSDLKYIKAKVLREGQARERDKCTIQLEHHHHHH", "values": [{"measurement": "soluble on expression in E. coli", "result": "soluble"}]}, {"sequence": "MGSDKIHHHHHHMKRAVVVFSGGQDSTTCLIQALQDYDDVHCITFDYGQRHRAEIEVAQELSQKLGAAAHKVLDVGLLNELATSSLTRDSIPVPDYDANAQGIPNTFVPGRNILFLTLASIYAYQVGAEAVITGVCETDFSGYPDCRDEFVKALNQAIVLGIARDIRFETPLMWLNKAETWALADYYQQLDTVRYHTLTCYNGIKGDGCGQCAACHLRANGLAQYQKDAATVMASLKQKVGLR", "values": [{"measurement": "soluble on expression in E. coli", "result": "not soluble"}]}, {"sequence": "RCGAGEPWGNATNLGVPCLHWDEVPPFLERSPPASWAELRGQPHNFCRSPDGAGRPWCFYRNAQGKVDWGYCDCGQG", "values": [{"measurement": "soluble on expression in E. coli", "result": "soluble"}]}, {"sequence": "GPGSMAPALCFTCMQPSRWTREGLPLILPLFQHLSPLSPFPNPSCNGISMCCTHTHTHTHTHTHTHTHAHTRLHLFQRFCFVNAIDFYELGAKSTRRVHGKVIIAARSRAPAMPPPAAAVSSSPSSSAAPMAVVYVRRDGRTALELRGKEMKLSDMTTFDGSSWYAQGQTAVMVSIHGPTIAKNDEYDTCIVQVRIQHAGVLAPAAGGAEKALYEERKLELLTRTDALALGSLLESTLNAVFLRERFPRCVLVVDVIVVRDDGSLPAVALNAVMSALLDAGLPCRTTMAAVCVAVLTHDGGADSNSGPAPDRHSSVEGSSSAGSVYEYLLDPTSAEESLGVGYAVPASSAAEKAAVTGASSVATSSAAPMSLRGGNAAQQVQGQYRCVSTGVFAFSNPACGGGLLAQLVRSVGSGSAEMCGPGVSVQAYAEMVALAERASAVLFEFFRQCNVAE", "values": [{"measurement": "soluble on expression in E. coli", "result": "not soluble"}]}, {"sequence": "MGSDKIHHHHHHMYKMTDNELTQMGAVITTREIQQEPELWLETFKIYQEKKQAIDAFLGKIESEFNEPVRVVFTGAGSSAYVGDTAMPYLTENGDRNHFRFEAIDTTKIVSTPKQYLEKDTPTILVSFARSGNSPESVATVDIAEKYVKHLYQITITCAPEGKLALHAQEDDKNLVLMQPARSNDKGFAMTGSFSCMLLTTLLVFDAQHSDEQKETYVNAISKMGHEVIDRVDDIQKLVDTDFERIVYLGSGALGGLTREAQLKVLELTAGQKVTVFDTSMGFRHGPKSFVNSKTLLFDFVSNNAYTRQYDVDILEEVAGDEIAPVVMGIGVQSAHNFTGSNFNFANGDDSIPDGYMAFPDVMFAQTISLLSSIKVKNTPDTPSATGTVNRVVKGVTIHDFEG", "values": [{"measurement": "soluble on expression in E. coli", "result": "not soluble"}]}, {"sequence": "GPPTRRSDFRVLVSGLPPSGSWQDLKDHMREAGDVCYADVQKDGMGMVEYLRKEDMEYALRKLDDTKFRSHEGETSYIRVYPERS", "values": [{"measurement": "soluble on expression in E. coli", "result": "soluble"}]}, {"sequence": "MANTLIVGAGWLGTPLAQALLVEGHDVVITRRSQARLDERPSTIANAALLDLNDENAAQKLDEIIQSNHIERIVGAFPPGFRRGSGREYAQQWSTLVKAAKQHAIEKLVMISSTTVYPNLPTDMKEESASLALVQTHPHFSDNAKIMLEAEQSVIDSGINYAILRCSGLFGPDRHPARFAMRLKQVSRKAPANMLHQSDAVAVAQFALDHLSNQIINVTTPHTVSKAEFYQAAITKSGAEISLPPVTEDADKRILADKLVSLGYQFRFNSTLDAL", "values": [{"measurement": "soluble on expression in E. coli", "result": "not soluble"}]}, {"sequence": "MAHHHHHHMEANGTLVECKRGESDAVVFRFLIIDAPSPSSVPAYMKLLQRHNVMHIVRACGPTYNAEVFEKQGIVVHGWSFDDGASPTQTVIDNWLNLLEQEKNKSPPETIAVHCVSGLGRAPILVALALVEYGGMPPLDAVGYVRGRRKGAINQVQLNWLMRYKPRHQESNEGSLICARCTLM", "values": [{"measurement": "soluble on expression in E. coli", "result": "soluble"}]}, {"sequence": "MKQSKIIVAGIGPGSEQDITPAVLAAVREADVVVGYKYYFRFIRDFVRPDAECIDTGMKRERARAEQAFEYAEQGKTVCVISSGDAGIYGMTPLIYEMKRERQSNVEIIALPGI", "values": [{"measurement": "soluble on expression in E. coli", "result": "not soluble"}]}, {"sequence": "MDGQTLHAWAKRFALELPFTEHCWPFGPQYDVFKVGGKIFMLFTEHHCRPVVNLKSDPQKSLVNQQIYPSIAPGYHMNKKHWISVYAGEDITVSLLNDLINDSWNLVVDGLPKREQLRLRPR", "values": [{"measurement": "soluble on expression in E. coli", "result": "not soluble"}]}, {"sequence": "SPDHLFPPKPNTRVVVAKFPMGAVTVEDLLVLGKPFGTVVKHLVLPAKGFLEFSAHKEAVNMVNHFQQKPAFVKDTRVGLYLSPRVEGIHSPPKYDEPVPKRLKRTNNPSVVCFSHLPPGEDNQAEVLELAAMFGEVWQSKFLDGKALIEMVDWRDADIMVKYYYSNPLKIQGKSIKVTMSYIKSLREMPGELTPRKSDSSKHSRQKEESSVKDKADDTNQESSEKETKTIKTPEQSQEEGVQLEEGTDHYNNLKLKHAVEEQADGQPDGE", "values": [{"measurement": "soluble on expression in E. coli", "result": "soluble"}]}, {"sequence": "MKVEKFKVLLYLKKSEPDKNGKAPIMGRITLNRTMAQFSCKLSCTPELWNARESRLNGKSRKAVETNEKIERLLLAVHSAFNSLMERKKDFDAAAVRDMFQGNAGIQMTLLKLLDRHNGEMKARVGVDRAPTTLSTYLFTYRTLSEFIKAKFKVSDLAFGQLNEQFIRDYQDFILMEKGHAVDTLRGYLAILKKICRIAYKEGHSEKYHFCHFKLPKQKESTPKALSRENFEKLRDLEIPEKRRSHVITRDLFLFACYTGTAYADVVSITRENLFTDEENNLWLKYRRKKTNYLGRVKLLPEALVLIEKYRDDARMTLFPPQDYHTLRANMKSLRLMAGLSQDLVYHTARHSFASLITLEEGVPIETISKMLGHSNIKTTQIYARVTPKRLFEDMDRFIEATRDLKLIL", "values": [{"measurement": "soluble on expression in E. coli", "result": "not soluble"}]}, {"sequence": "MSTINYDLSRIKALAFDVDGVLSSTTVPLHPSGEPMRTVNIKDGYAIQLAVKKGLHIAIITGGRTEAVRIRFAALGVKDLYMGSAVKIHDYRNFRDKYGLSDDEILYMGDDVPDIEVMRECGLPCCPKDAVPEVKSVAKYISYADGGRGCGRDVVEQVLKAHGKWMAEDAFGW", "values": [{"measurement": "soluble on expression in E. coli", "result": "not soluble"}]}, {"sequence": "MGSDKIHHHHHHMKKKNVIVFGGGTGLSVLLRGLKTFPVSITAIVTVADDGGSSGRLRKELDIPPPGDVRNVLVALSEVEPLLEQLFQHRFENGNGLSGHSLGNLLLAGMTSITGDFARGISEMSKVLNVRGKVLPASNRSIILHGEMEDGTIVTGESSIPKAGKKIKRVFLTPKDTKPLREGLEAIRKADVIVIGPGSLYTSVLPNLLVPGICEAIKQSTARKVYICNVMTQNGETDGYTASDHLQAIMDHCGVGIVDDILVHGEPISDTVKAKYAKEKAEPVIVDEHKLKALGVGTISDYFVLEQDDVLRHNASKVSEAILEGKPRTSSSIQ", "values": [{"measurement": "soluble on expression in E. coli", "result": "not soluble"}]}]}
